Experimental data: article PMC10032657

Target: anti-CD52 IgG1-RGY (alemtuzumab with E345R, E430G and S440Y)
Assay: native MS; anti-CD52 IgG1-RGY at a total IgG1 concentration of 2 µM, no peptide; 150 mM ammonium acetate pH 7.5; monomer and hexamer in solution

stoichiometry N: 6
B1: anti-CD52 IgG1-RGY (alemtuzumab with E345R, E430G and S440Y) (antibody, V domains shown)
VH: QVQLQESGPGLVRPSQTLSLTCTVSGFTFTDFYMNWVRQPPGRGLEWIGFIRDKAKGYTTEYNPSVKGRVTMLVDTSKNQFSLRLSSVTAADTAVYYCAREGHTAAPFDYWGQGSLVTVSS
VL: DIQMTQSPSSLSASVGDRVTITCKASQNIDKYLNWYQQKPGKAPKLLIYNTNNLQTGVPSRFSGSGSGTDFTFTISSLQPEDIATYYCLQHISRPRTFGQGTKVEIK
